Results: the supplement of paper PMC9732359
± gives the uncertainty stated by the source.

Assay: protein stability index of a GFP-peptide fusion (yeast GPS) (PSI 1-4); higher = more stable; sorted into four equal gates, so the index is relative within each strain
Conditions: doa10∆
Outline: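 Mid-log yeast cultures in leucine-free medium, carrying a pooled plasmid library, were sorted into four equal gates by their GFP/Cherry fluorescence ratio. Each plasmid expressed Cherry along with GFP fused upstream of a tiled 17-residue yeast protein peptide. Plasmids recovered from each gate were PCR-amplified and Illumina-sequenced, with reads assigned to strains by barcodes. The protein stability index was obtained by summing each gate's read frequency weighted by its gate number.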
Work on IVKASNWRLVEVGRVVL [RPL14A] yielded a protein stability index of 2.8 ± 0.1.
Work on IVKVFHGAFMDIIWLQR [RRP6] yielded a protein stability index of 2.1 ± 0.056.
Work on IVNVNFMKSVIRSREAF [DIS3] yielded a protein stability index of 2.75 ± 0.065.
IVQIDATPFRQWFEAHY [RPS8A] gave a protein stability index of 2.425 ± 0.022.
With IVTGNLVLDLLTWLSSF [IRR1] the protein stability index was 2.63 ± 0.061.
Work on IVTKDGVRKEFYELKRD [PRE7] yielded a protein stability index of 2.35 ± 0.093.
Work on IVVQLNGRLNKCGVISP [RPS22A] yielded a protein stability index of 3.25 ± 0.19.
Work on IYISNLVRSIIAFDDLI [RPN8] yielded a protein stability index of 1.42 ± 0.066.
For IYLSRFLIKASVREINL [SSN8], the protein stability index was 1.83 ± 0.18.
IYNNIVSNIEGILDEIM [RGR1] gave a protein stability index of 2.72 ± 0.08.
With IYNSASKASMQKEQNVN [YCS4] the protein stability index was 1.65 ± 0.13.
IYRTTRQDGSYTYHSTN [ARP9] gave a protein stability index of 2.61 ± 0.08.
In the case of IYSRDIGAELKREESES [SNF2], the protein stability index is reported as 3.06 ± 0.087.
KAAAGAGSAALKIIHDT [RPO31] showed a protein stability index of 3.45 ± 0.13.
Sequence KAIPTFSFGKPFFSSNT [YIL149C/MLP2] has a protein stability index of 3.07 ± 0.048.
Sequence KAKSNQTQREKAPLQPN [IRR1] has a protein stability index of 3.07 ± 0.058.
With KAKSVVNDVEELGEIID [RMP1] the protein stability index was 3.4 ± 0.14.
KALLFFNNEKETEKFAL [RPN12] showed a protein stability index of 3.25 ± 0.084.
Sequence KALPIRRDDEVLVVRGS [RPL26A] has a protein stability index of 3.06 ± 0.18.
KALVLFVPVPALSAYHK [RPS7B] showed a protein stability index of 2.13 ± 0.063.
Work on KAPEQFIENFLTNDTFE [YML103C/NUP188] yielded a protein stability index of 2.84 ± 0.12.
Sequence KCQTCQEGMNECPGHFG [RPO21] has a protein stability index of 3.34 ± 0.17.
Sequence KDAEDETSSDGSKSDGS [RPN1] has a protein stability index of 3.38 ± 0.051.
For KDAEYLRNYLTPNVREE [PUP1], the protein stability index was 3.09 ± 0.057.
With KDALSNSILSVRDPWSI [SRB2] the protein stability index was 3.27 ± 0.07.
KDEEETEYFENKQSVSN [DSN1] gave a protein stability index of 3.46 ± 0.12.
For KDILNLASEVGDPALVY [ECM29], the protein stability index was 2.87 ± 0.09.
With KDKFNQIPLHRAASVGS [NAS6] the protein stability index was 1.81 ± 0.074.
In the case of KDLKDDSIYTKPVKVAL [YJL039C/NUP192], the protein stability index is reported as 2.81 ± 0.049.
KDLKHIIYYKFNKNLGK [PRP8] gave a protein stability index of 1.14 ± 0.052.
KDLTLCRYSCLALERMV [YCS4] showed a protein stability index of 2.58 ± 0.23.
Work on KDMKLLRYYKNIWLNNK [NUT1] yielded a protein stability index of 2.01 ± 0.065.
For KDMLYSGITGECLQAYI [RET1], the protein stability index was 2.65 ± 0.047.
In the case of KDQALIGTINSIVHINS [SIR2], the protein stability index is reported as 1.69 ± 0.035.
KDSYVRIANIEQNHLDN [YDL088C/ASM4] showed a protein stability index of 3.12 ± 0.14.
KDTNDHVDKRTKIDQEA [ISW2] showed a protein stability index of 2.6 ± 0.047.
Sequence KDVAKPTGPKTAIDKNG [FAS2] has a protein stability index of 3.31 ± 0.18.
Sequence KDVKARIAAGDGDDDDE [QCR9] has a protein stability index of 1.83 ± 0.13.
In the case of KDVKAWAGKRLWDQDIA [COR1], the protein stability index is reported as 3.52 ± 0.11.
With KDVLAQTSVTTNFNEIT [SWP82] the protein stability index was 2.3 ± 0.079.
With KEIYTTLGNQMLSAHNI [YJR042W/NUP85] the protein stability index was 2.85 ± 0.099.
In the case of KEKLIGWYHSGPKLRAS [RPN8], the protein stability index is reported as 2.16 ± 0.055.
KEKWPSLELQSFQKIPL [YML103C/NUP188] gave a protein stability index of 2.27 ± 0.1.
Sequence KELKEKEAAESPEEADV [PUP2] has a protein stability index of 3.44 ± 0.082.
Sequence KENFILDSLMKTTRLLL [YJL039C/NUP192] has a protein stability index of 1.96 ± 0.057.
Sequence KEPRLVIVTDPRSDAQA [RPS0A] has a protein stability index of 2.56 ± 0.14.
KFADGFLIHSGQPVNDF [RPS3] showed a protein stability index of 2.67 ± 0.059.
Work on KFFMKHGLILELQKIWQ [SRB5] yielded a protein stability index of 2.94 ± 0.096.
Work on KFGACVAQGIMNAGGRN [RPN2] yielded a protein stability index of 3.02 ± 0.14.
With KFIALCEQQPSQEREFS [SIN4] the protein stability index was 2.78 ± 0.055.
With KFKHIDDKYGRKFALEK [SRP72] the protein stability index was 2.59 ± 0.061.
In the case of KFKKEKFDIIIVDTSGR [SRP54], the protein stability index is reported as 2.84 ± 0.046.
For KFNNTQRESQIGAAELN [SNF12], the protein stability index was 3.01 ± 0.097.
In the case of KGDGMTSAVASIGSIYQ [RPN1], the protein stability index is reported as 2.67 ± 0.28.
With KGDINPEVSMIRDIREK [RPB2] the protein stability index was 3.29 ± 0.16.
For KGGIIASVGDILKTLER [YML031W/NDC1], the protein stability index was 2.99 ± 0.11.
With KGGSLYGLGLIYAGFGR [RPN2] the protein stability index was 2.15 ± 0.095.
Sequence KGKARLGTLVNQKTSAV [RPL8A] has a protein stability index of 2.65 ± 0.078.
With KGSRQCRVCSSHTGLIR [RPS29A] the protein stability index was 2.73 ± 0.06.
With KGSRQCRVCSSHTGLVR [RPS29B] the protein stability index was 2.67 ± 0.065.
KGVLLYGPPGTGKTLLA [RPT4] gave a protein stability index of 2.51 ± 0.045.
Work on KGYLQRGDDGESYAYLA [CDC53] yielded a protein stability index of 3.17 ± 0.057.
Sequence KHGAVHLSTYLKVYKVG [RPL21A] has a protein stability index of 1.76 ± 0.07.
KIAKRRQVYKPVLDNPF [POP3] gave a protein stability index of 1.92 ± 0.077.
For KIALGSPIVNVLEDVYR [RRI2], the protein stability index was 2.17 ± 0.15.
With KIEGVATPQEAQFYLGK [RPL33B] the protein stability index was 2.87 ± 0.083.
For KIESEDDYILSGESVMD [SRB4], the protein stability index was 3.4 ± 0.17.
KIINTHSDMASKMYNTD [PRP8] gave a protein stability index of 2.72 ± 0.049.
For KIIPKDISATQLPKQLW [ITC1], the protein stability index was 2.22 ± 0.11.
With KIKAILESVGIEIEDEK [RPP2A] the protein stability index was 2.75 ± 0.084.
Sequence KINQERLERRINLTKVT [CSI1] has a protein stability index of 1.91 ± 0.062.
Sequence KIPILAQHESFLRQKIC [RPN9] has a protein stability index of 1.72 ± 0.046.
For KIQVVDRHIGCVYSGLI [PRE10], the protein stability index was 1.28 ± 0.12.
KIRARSITLQGDVYDPE [SMC2] showed a protein stability index of 2.07 ± 0.065.
For KISNSEFFNPEIFHLLQ [SIN4], the protein stability index was 2.13 ± 0.079.
Work on KITAKTQHEEEEEQDTG [IRR1] yielded a protein stability index of 2.69 ± 0.11.
In the case of KIYKLENGERKLYDAKR [YMR129W/POM152], the protein stability index is reported as 3.13 ± 0.06.
In the case of KKAVVKGTNGKKALKVR [RPL25], the protein stability index is reported as 2.84 ± 0.094.
KKCIDFFEMLISKSLTF [RRI2] showed a protein stability index of 2.13 ± 0.055.
KKDIKIGTNDLFQVESA [SIR4] showed a protein stability index of 2.62 ± 0.082.
For KKDQSVLKSHSNDFEEG [YMR129W/POM152], the protein stability index was 2.59 ± 0.087.
Sequence KKENLTRDETVSLIKKY [YML103C/NUP188] has a protein stability index of 2.82 ± 0.065.
Sequence KKFNMGKEFEARNLIED [RPC53] has a protein stability index of 2.81 ± 0.11.
KKIGCYMFANLEFSIYH [CSN12] showed a protein stability index of 2.07 ± 0.071.
KKISRLPKFLTVQYVRF [UBP6] showed a protein stability index of 1.65 ± 0.043.
For KKIVDSKKLNLKIHQSH [YMR129W/POM152], the protein stability index was 2.85 ± 0.067.
KKKKKGSNQKPKYEPPV [RPT2] showed a protein stability index of 2.94 ± 0.11.
Work on KKKQQGAKQTQGGAMNK [SRP72] yielded a protein stability index of 2.07 ± 0.12.
Work on KKKRSRTSATREDTPLS [ISW2] yielded a protein stability index of 3.51 ± 0.16.
KKKTTLEDFENFKGLAK [YIL149C/MLP2] showed a protein stability index of 2.82 ± 0.031.
Sequence KKLKPIVAKYDPPIIIF [PRP28] has a protein stability index of 2.94 ± 0.069.
For KKLLINKDASLALQRGA [DPB4], the protein stability index was 2.62 ± 0.094.
KKMDDYIHRIGRTGRAA [PRP28] showed a protein stability index of 3.17 ± 0.1.
With KKNPNWLEEYHPKLIKN [FAS1] the protein stability index was 2.05 ± 0.087.
KKQKLIEEQDKKVQALQ [ITC1] gave a protein stability index of 3.06 ± 0.094.
For KKSEEKLREKVNDVELA [MTW1], the protein stability index was 3.08 ± 0.13.
Sequence KKSKKKWSKKSMKDRAQ [RPS25A] has a protein stability index of 3.46 ± 0.069.
For KKSQCKKKTTLEDFENF [YIL149C/MLP2], the protein stability index was 2.87 ± 0.053.
For KKSVLKQVQDFEENDHP [COR1], the protein stability index was 2.85 ± 0.084.
In the case of KKWKKYWQYKAGIPIGL [SWP82], the protein stability index is reported as 1.94 ± 0.067.
In the case of KKWNDLKNKNFKCQEKD [SIR2], the protein stability index is reported as 3.46 ± 0.23.
Sequence KLHVNWNLNATKPNVLN [SIN4] has a protein stability index of 2.94 ± 0.17.
